Here are results for 14 molecules from patent US20070269898A1, “Amino Acid Sequences Essential to Neuron Specific Gene Expression” (YOKOHAMA CITY UNIVERSITY, priority 2004, published 2007).

Where no end group is shown, it is not given here.

One data set concerns the target T1, mSin3B PAH1 domain (Mus musculus, UniProt Q62141).
T1 construct: Gly-Ser-His-Met (vector-derived N-terminal residues; general statement only, not tied to the sample used) (N); made in house
T1 sequence (Q62141 28-107): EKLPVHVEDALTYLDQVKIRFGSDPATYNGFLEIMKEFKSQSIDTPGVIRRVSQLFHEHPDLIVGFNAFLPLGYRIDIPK
The data set can be described thus: 1H-15N HSQC interaction / titration experiment with 15N-labeled mSin3B PAH1 domain. The format is binding. The settings on record: for Spectrum (1H-15N HSQC of 15N-mSin3B PAH1 after adding the peptide: complex or single peptide): peptide added to aqueous solution of 15N-labeled mSin3B PAH1. Here is the method:
Interaction candidate regions of NRSF/REST (a.a. 43-83, 39-55, 38-57, 64-80 and 68-83) were individually added to an aqueous solution of ^15N-labeled mSin3B PAH1 for measuring ^1H—^15N HSQC to thereby determine a region necessary for the interaction. In order to examine binding ratios, NRSF/REST (a.a. 42-56) at varied concentrations was added to ^15N-labeled mSin3B PAH1 domain in phosphate buffer (pH 6.6), followed by observation of signal changes by ^1H—^15N HSQC. […] Further, in order to carry out quantitative determination of concentrations with UV, a residue having an aromatic ring (W) was also added to the peptide. In a similar manner, the interaction between ^15N-labeled mSin3B PAH1 domain and N—CoR (a.a. 1829-1847) was observed by ^1H-^15N HSQC. For all of the NMR measurement, Bruker Advance 700 was used.
^1H—^15N HSQC spectra were measured when NRSF/REST (a.a. 42-56) was added to 0.1 mM ^15N-labeled mSin3B PAH1 domain at a molar ratio of 1:0, 1:0.5, 1:1 or 1:2. As the concentration of NRSF/REST increased, signals from the single peptide mSin3B disappeared and new signals derived from the mSin3B in complex began to appear. […] No difference was recognized between mSin3B PAH1:NRSF/REST ratios of 1:1 and 1:2. Therefore, it was shown that mSin3B PAH1 domain and NRSF/REST form a complex with 1:1.
^1H—^15N HSQC spectra were measured when N—CoR was added to 0.1 mM ^15N-labeled mSin3B PAH1 domain at a molar ratio of 1:0, 1:0.2, 1:0.4, 1:0.6, 1:0.8, 1:1, 1:2 or 1:3. The positions of signals shifted in a N—CoR concentration dependent manner.

A further data set in a line: Solubility of peptide. The format is physicochemical. Conditions: before adding KKKK to the C-terminus.
Data set [1] addresses T2, PAH1 domain of mSin3B (a.a. 28-107) (mouse, UniProt O75182 35-114 (human entry)).
T2 construct: Expressed in E. coli from pET-28a (NdeI-BamHI) and the His-tag was cut off with thrombin; Used 15N-labeled (or 13C/15N-labeled) in NMR; Stated molecular weight 9585; also called mSin3B PAH1 domain; mSin3B PAH1
T2 sequence: T1 sequence (Q62141 28-107)
The experiment in a line: 1H-15N HSQC NMR, peptide added to 15N-labeled mSin3B PAH1 domain. Here is the method:
(§1) Interaction candidate regions of NRSF/REST (a.a. 43-83, 39-55, 38-57, 64-80 and 68-83) were individually added to an aqueous solution of ¹⁵N-labeled mSin3B PAH1 for measuring ¹H—¹⁵N HSQC to thereby determine a region necessary for the interaction. In order to examine binding ratios, NRSF/REST (a.a. 42-56) at varied concentrations was added to ¹⁵N-labeled mSin3B PAH1 domain in phosphate buffer (pH 6.6), followed by observation of signal changes by ¹H—¹⁵N HSQC. Since NRSF/REST (a.a. 42-56) is sparingly soluble, basic residues (KKKK) were added to its C-terminus to improve the solubility. Further, in order to carry out quantitative determination of concentrations with UV, a residue having an aromatic ring (W) was also added to the peptide. […] For all of the NMR measurement, Bruker Advance 700 was used.

For data set [2], the target named is T2, PAH1 domain of mSin3B (a.a. 28-107). The experiment in a line: 1H-15N HSQC titration, 0.1 mM 15N-labeled mSin3B PAH1 at molar ratios 1:0 to 1:3. The protocol: as §1
¹H—¹⁵N HSQC spectra were measured when N—CoR was added to 0.1 mM ¹⁵N-labeled mSin3B PAH1 domain at a molar ratio of 1:0, 1:0.2, 1:0.4, 1:0.6, 1:0.8, 1:1, 1:2 or 1:3. The positions of signals shifted in a N—CoR concentration dependent manner. A rapid exchange process on the NMR timescale was shown.

Regarding “DYLVGEERQMAELMPVG (listed as Homo sapiens) [NRSF/REST 64-80, synthetic peptide of NRSF/REST residues 64-80]”, in the data set with mSin3B PAH1 domain, the “Spectrum (1H-15N HSQC of 15N-mSin3B PAH1 after adding the peptide: complex or single peptide)” value (“Spectrum” for short) is “Single”.
As to AAPQLIMLANVALTGKKKKW [NRSF/REST 42-56], in “Solubility of peptide”, the solubility entry was “sparingly soluble”.
For “AELAAPQLIMLANVALT (listed as Homo sapiens) [NRSF/REST 39-55, synthetic peptide of NRSF/REST residues 39-55]”, in the data set with mSin3B PAH1 domain, the “Spectrum” value is listed as “Complex”.
On the same count and under the same terms, to “GEERQMAELMPVGDNN (listed as Homo sapiens) [NRSF/REST 68-83, synthetic peptide of NRSF/REST residues 68-83]” belongs “Single”; to “APQLIMLANVALTGEVNGSCCDYLVGEERQMAELMPVGDNN (listed as Homo sapiens) [NRSF/REST 43-83, NRSF/REST residues 43-83, expressed as GST fusion in E. coli and cut with thrombin]”, “Complex”.
Turning to “N—CoR (a.a. 1829-1847): synthetic peptide of residues 1829-1847 of transcriptional co-repressor N—CoR (RYNTAADALAALVDAAASA; listed as Homo sapiens)”, the “interaction with the PAH1 domain relative to NRSF/REST” value with mSin3B PAH1 domain (1H-15N HSQC) was “interacts with the PAH1 domain, though more weakly than NRSF/REST”. For the same molecule, the “exchange process on the NMR timescale” value with mSin3B PAH1 domain (titration into 0.1 mM 15N-labeled mSin3B PAH1 domain, 1H-15N HSQC) was “rapid exchange process”.
“KAELAAPQLIMLANVALTGE (listed as Homo sapiens) [NRSF/REST 38-57, synthetic peptide of NRSF/REST residues 38-57]”: the “Spectrum” value in the data set with mSin3B PAH1 domain was “Complex”.

B1: NRSF/REST (a.a. 38-57) (peptide)
peptide: KAELAAPQLIMLANVALTGE
notes: Synthetic peptide, molecular weight 2053; Used for NMR structure analysis of the complex; also called NRSF/REST38-57
For the molecule B1, the binding result in data set [1] was “binds”.

B2: NRSF/REST (a.a. 42-56) to which KKKK and W are added to its C-terminus (peptide)
peptide: AAPQLIMLANVALTGKKKKW
notes: Synthetic peptide, molecular weight 2182; also called NRSF/REST42-56
In the case of B2, the binding result in data set [1] is given as “binds”.

B3: NRSF/REST (a.a. 64-80) (peptide)
peptide: DYLVGEERQMAELMPVG
notes: Synthetic peptide, molecular weight 1937
Regarding B3, the binding result in data set [1] is given as “no binding”.

B4: NRSF/REST (a.a. 68-83) (peptide)
peptide: GEERQMAELMPVGDNN
notes: Synthetic peptide, molecular weight 1790
Consider B4, for which the binding result in data set [1] is “no binding”.

B5: NRSF/REST (a.a. 43-83) (peptide)
peptide: APQLIMLANVALTGEVNGSCCDYLVGEERQMAELMPVGDNN
notes: Recombinant, made as a GST fusion (pGEX-2T, BamHI-EcoRI) and GST was cut off with thrombin; Stated molecular weight 4511; also called NRSF/REST43-83
In the case of B5, in data set [1], the binding result was “binds”.

B6: N-CoR (a.a. 1829-1847) (peptide)
peptide: RYNTAADALAALVDAAASA
notes: Synthetic peptide, molecular weight 1835; also called co-repressor N-CoR
In the case of B6, the binding result in data set [2] is “binds”.

B7: NRSF/REST (a.a. 39-55) (peptide)
peptide: AELAAPQLIMLANVALT
notes: Synthetic peptide, molecular weight 1739; also called NRSF/REST39-55
With B7, in data set [1], the binding result is “binds”.
